Source: paper PMC12111831, “Phase-Separated Multienzyme Condensates for Efficient Synthesis of Imines from Carboxylic Acids with Enhanced Dual-Cofactor Recycling” (International Journal of Molecular Sciences, 2025)

How the values were obtained:
AspRedAm = molecular target: T1, AspRedAm (Aspergillus oryzae, UniProt Q2TW47); assay: NADPH absorbance at […] nm, specific activity; assay type: biochemical; settings: 10 mM aldehyde, 20 mM amine, 0.2 mM NADPH, MOPS pH 7.5, 30 °C
T1 sequence (Q2TW47 1-295): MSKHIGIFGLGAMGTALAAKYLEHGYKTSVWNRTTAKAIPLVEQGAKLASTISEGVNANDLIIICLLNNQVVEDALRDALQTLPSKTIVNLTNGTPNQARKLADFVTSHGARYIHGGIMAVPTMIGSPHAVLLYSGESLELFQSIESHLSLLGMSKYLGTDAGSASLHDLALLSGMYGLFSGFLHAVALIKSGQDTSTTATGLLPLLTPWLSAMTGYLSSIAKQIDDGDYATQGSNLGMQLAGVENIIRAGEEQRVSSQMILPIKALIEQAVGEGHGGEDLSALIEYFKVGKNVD

O=C(O)c1ccccc1 = assay: purified protein; settings: ATP, NADPH, Mg2+, 30 °C
CCCC(=O)O = assay: purified protein, by the assay type; settings: pH 7.5; 30.0 °C
Method: (§1) Varying substrate concentrations were dissolved in 250 mM NaOH. Substrate-free controls were included for baseline correction. Kinetic parameters were derived via the nonlinear regression of Michaelis–Menten plots using OriginPro 2021 SR2 (64-bit) Build 9.8.0.240.
COc1ccc(C(=O)O)cc1 = assay: purified protein, by the assay type; settings: pH 7.5; 30.0 °C
Method: as §1
Cc1ccc(C(=O)O)cc1 = assay: purified protein, by the assay type; settings: pH 7.5; 30.0 °C
Method: as §1
O=C(O)CCc1ccccc1 = assay: purified protein, by the assay type; settings: pH 7.5; 30.0 °C
Method: as §1
O=C(O)c1ccc2c(c1)OCO2 = assay: purified protein, by the assay type; settings: pH 7.5; 30.0 °C
Method: as §1

Compound: NC1CC1 [cyclopropylamine]
- NADPH absorbance at 340 nm, specific activity (AspRedAm; not with aldehyde 2h): both enzymes exhibited catalytic activity toward all tested substrates, except for substrate 2h with cyclopropylamine

Compound: C#CCN [propargylamine]
- NADPH absorbance at 340 nm, specific activity (AspRedAm): both enzymes exhibited catalytic activity toward all tested substrates, except for substrate 2h with cyclopropylamine

Compound: NiCAR (Nocardia iowensis)
- Km (O=C(O)c1ccccc1): 450 ± 30 µM
- kcat (O=C(O)c1ccccc1): 3.9227 ± 0.0378 s⁻¹
- Km (CCCC(=O)O): 101930 ± 21090 µM
- kcat (CCCC(=O)O): 5.56 ± 1.05 s⁻¹
- Km (COc1ccc(C(=O)O)cc1): 1580 ± 140 µM
- kcat (COc1ccc(C(=O)O)cc1): 1.89 ± 0.0387 s⁻¹
- Km (Cc1ccc(C(=O)O)cc1): 1850 ± 160 µM
- kcat (Cc1ccc(C(=O)O)cc1): 3.17 ± 0.0792 s⁻¹
- Km (O=C(O)CCc1ccccc1): 1040 ± 90 µM
- kcat (O=C(O)CCc1ccccc1): 3.15 ± 0.0588 s⁻¹
- Km (O=C(O)c1ccc2c(c1)OCO2): 4490 ± 620 µM
- kcat (O=C(O)c1ccc2c(c1)OCO2): 1.58 ± 0.0875 s⁻¹
